Assay results taken from patent US20110207670.

How the values were obtained:
[1] = test system: TM-LE15 (truncated form of TMD2 in which the EGF 6 domain is removed)
[2] = test system: TMD2-I424A (TMD2 in which the isoleucine at position 424 is substituted with alanine)
[3] = test system: human TMD1 (soluble thrombomodulin containing the amino terminal domain, EGF domain and ST domain, without signal peptide)
[4] = test system: human TMD2 (wild-type soluble human thrombomodulin truncated immediately after EGF6, without signal peptide)

Chain of TM-LE15 (truncated form of TMD2 in which the EGF 6 domain is removed) (chain, as listed by the source): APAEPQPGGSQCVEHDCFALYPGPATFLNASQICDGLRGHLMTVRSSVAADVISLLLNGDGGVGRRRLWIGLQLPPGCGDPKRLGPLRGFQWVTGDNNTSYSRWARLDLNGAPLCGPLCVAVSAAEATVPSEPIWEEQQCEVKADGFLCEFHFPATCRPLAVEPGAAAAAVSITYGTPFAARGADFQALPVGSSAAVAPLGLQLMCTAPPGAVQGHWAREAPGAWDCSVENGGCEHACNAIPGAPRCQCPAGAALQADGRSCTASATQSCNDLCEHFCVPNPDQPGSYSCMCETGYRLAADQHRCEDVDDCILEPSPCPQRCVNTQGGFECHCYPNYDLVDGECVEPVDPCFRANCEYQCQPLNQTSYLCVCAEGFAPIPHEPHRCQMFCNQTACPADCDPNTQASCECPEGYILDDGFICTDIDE

**Q.** Which Vmax (mOD405/min) of human protein C activation [1] does the source give for human thrombin here?
**A.** Its Vmax (mOD405/min) of human protein C activation is 8.3 mOD405/min.

**Q.** What about the Vmax (mOD405/min) of human protein C activation [2] of the same substance?
**A.** Its Vmax (mOD405/min) of human protein C activation is 6.9 mOD405/min.

**Q.** And the Vmax (mOD405/min) of human protein C activation [3]?
**A.** The Vmax (mOD405/min) of human protein C activation was 43.3 mOD405/min.

**Q.** And the Vmax (mOD405/min) of human protein C activation [4]?
**A.** Its Vmax (mOD405/min) of human protein C activation is 39.1 mOD405/min.
